{"source": "patent US20190218553", "about": "“VON WILLEBRAND FACTOR (VWF)-TARGETING AGENTS AND METHODS OF USING THE SAME” (DUKE UNIVERSITY, published 2019)", "binders": {"B1": {"name": "T35 (ssRNA)", "RNA": "ACGAACUGCCCUCAGUACUUUCAUGUUCUGACGCACAGACGU", "modifications": "2'-F C and U; 2'-OH A and G; 3' idT"}, "B2": {"name": "T38 (ssRNA)", "RNA": "ACGAACUGCCCUCGCACUUUCAUGUGCGACGCACAGACGU", "modifications": "2'-F C and U; 2'-OH A and G; 3' idT"}, "B3": {"name": "T41 (ssRNA)", "RNA": "ACGAACUGCCCUCAGCACUUAUGUGCUGACGCACAGACGU", "modifications": "2'-F C and U; 2'-OH A and G; 3' idT"}, "B4": {"name": "T48 (ssRNA)", "RNA": "ACGAACUGCCCUCGACUUAUGUCGACGCACAGACGU", "modifications": "2'-F C and U; 2'-OH A and G; 3' idT"}, "B5": {"name": "T49 (ssRNA)", "RNA": "ACGAACUGCCCUCGAUUAUUCGACGCACAGACGU", "modifications": "2'-F C and U; 2'-OH A and G; 3' idT"}, "B6": {"name": "T51 (ssRNA)", "RNA": "ACGAACUGCCCUCAGACUUAUGUCUGACGCACAGACGU", "modifications": "2'-F C and U; 2'-OH A and G; 3' idT"}, "B7": {"name": "T60 (ssRNA)", "RNA": "ACGAACUGCCCUCGAUUUCGACGCACAGACGU", "modifications": "2'-F C and U; 2'-OH A and G; 3' idT"}, "B8": {"name": "T63 (ssRNA)", "RNA": "ACGAACGCCCUCGAUUAUUCGACGCACGACGU", "modifications": "2'-F C and U; 2'-OH A and G; 3' idT"}, "B9": {"name": "T64 (ssRNA)", "RNA": "ACGAACUGCCCUAUUAUUACGCACAGACGU", "modifications": "2'-F C and U; 2'-OH A and G; 3' idT"}, "B10": {"name": "T69 (ssRNA)", "RNA": "ACGAACUGCCCUGAUUAUUCACGCACAGACGU", "modifications": "2'-F C and U; 2'-OH A and G; 3' idT"}, "B11": {"name": "T15 (ssRNA)", "RNA": "GGGAGGUGGACGAACUGCCCUCAGCUACCAUGUUGCUGACGCACAGACGACUCGCUG", "modifications": "2'-F C and U; 2'-OH A and G"}, "B12": {"name": "T77 (ssRNA)", "RNA": "AAAAACGAACUGCCCUCGAUCGACGCACAGACGU", "modifications": "2'-F C and U; 2'-OH A and G; 3' idT"}, "B13": {"name": "T78 (ssRNA)", "RNA": "CCCAAAACGAACUGCCCUCGAUCGACGCACAGACGU", "modifications": "2'-F C and U; 2'-OH A and G; 3' idT"}, "B14": {"name": "T16 (ssRNA)", "RNA": "GGGAGGUGGACGAACUGCCCUCAGCUACGUUGCUGACGCACAGACGACUCGCUG", "modifications": "2'-F C and U; 2'-OH A and G"}, "B15": {"name": "T89 (ssRNA)", "RNA": "B4 RNA with A15U, C16A, G21U", "modifications": "2'-F C and U; 2'-OH A and G; 3' idT"}, "B16": {"name": "T21 (ssRNA)", "RNA": "GGGAGGUCAGCUACUUUCAUGUUGCUGACGCACAGACGACUCGCUG", "modifications": "2'-F C and U; 2'-OH A and G"}, "B17": {"name": "T25 vrt9 (ssRNA)", "RNA": "ACGAACUGCCCUCAGCUACUUUCAUGUUGCUGACGCACAGACGU", "modifications": "rAfCrGrArAfCfUrGfCfCfCfUfCmAmGfCfUmAfCfUfUfUfCrAfUrGfUfUmGfCfUmGrAfCrGfCrAfCrArGrAfCrGfU-idT"}, "B18": {"name": "T25 vrt10 (ssRNA)", "RNA": "B17 RNA", "modifications": "rAfCrGrArAfCfUrGfCfCfCfUmCmAmGmCmUmAfCfUfUfUfCrAfUrGmUmUmGmCmUmGrAfCrGfCrAfCrArGrAfCrGfU-idT"}, "B19": {"name": "T25 vrt11 (ssRNA)", "RNA": "B17 RNA", "modifications": "rAfCrGrArAfCfUrGfCfCfCfUfCrArGfCfUrAfCfUfUfUfCmAfUmGfUfUrGfCfUrGrAfCrGfCrAfCrArGrAfCrGfU-idT"}, "B20": {"name": "T25 vrt12 (ssRNA)", "RNA": "B17 RNA", "modifications": "rAfCrGrArAfCfUrGfCfCfCfUfCrArGfCfUrAmCmUmUmUmCmAmUmGfUfUrGfCfUrGrAfCrGfCrAfCrArGrAfCrGfU-idT"}}, "conditions_in_all_cases": "tags: factor VIII free, Haematologic Technologies Inc; label: 5'-32P", "key": {"[1]": {"molecular_target": "T1, von Willebrand factor (VWF) (Homo sapiens, UniProt P04275 P04275:764-2813)", "assay": "filter; Bmax 66%; 2 mM CaCl2, 37 C", "protocol": "(§1) Affinity constants (Kd values) were determined using double-filter nitrocellulose filter binding assays (Rusconi et al, Thromb. Haemost. $4:841-848 (2000)). All binding studies were performed in binding buffer F (20 mM HEPES, pH 7.4, 150 mM NaCl, 2 mM CaCl₂, and 0.01% BSA) at 37° C. Human purified VWF (factor VIII free) was purchased from Haematologic Technologies Inc. (Essex Junction, Vt.) and used in the double-filter nitrocellulose filter binding assay to determine the Kd of the aptamers. Briefly, RNA were end-labeled at the 5′ end with T4 polynucleotide kinase (New England Biolabs, Beverly, Mass.) and [γ³²P] ATP (Amersham Pharmacia Biotech, Piscataway, N.J.) (Fitzwater and Polisky, Methods Enzymol. 267:275-301 (1996)). End-labeled RNA was diluted in binding buffer F, heat denatured at 65° C. for 5 minutes, and subsequently equilibrated at 37° C. Direct binding was performed by incubating trace ³²P-RNA with varying concentrations of VWF protein in binding buffer F at 37° C. for 5 min. The fraction of the nucleic acid-protein complex which bound to the nitrocellulose membrane was quantified with a phosphorimager (Molecular Dynamics, Sunnyvale, Calif.). Non-specific binding of the radiolabeled nucleic acid was subtracted out of the binding such that only specific binding remained (Wong and Lohman, Proc. Natl. Acad. Sci. USA 90:5428-5432 (1993))."}, "[2]": {"molecular_target": "T1, von Willebrand factor (VWF)", "assay": "filter; Bmax 55%; 2 mM CaCl2, 37 C", "protocol": "as §1"}, "[3]": {"molecular_target": "T1, von Willebrand factor (VWF)", "assay": "filter; Bmax 49%; 2 mM CaCl2, 37 C", "protocol": "as §1"}, "[4]": {"molecular_target": "T1, von Willebrand factor (VWF)", "assay": "filter; Bmax 52%; 2 mM CaCl2, 37 C", "protocol": "as §1"}, "[5]": {"molecular_target": "T1, von Willebrand factor (VWF)", "assay": "filter; Bmax 60%; 2 mM CaCl2, 37 C", "protocol": "as §1"}, "[6]": {"molecular_target": "T1, von Willebrand factor (VWF)", "assay": "filter; Bmax 56%; 2 mM CaCl2, 37 C", "protocol": "as §1"}, "[7]": {"molecular_target": "T1, von Willebrand factor (VWF)", "assay": "filter; Bmax 71%; 2 mM CaCl2, 37 C", "protocol": "as §1"}, "[8]": {"molecular_target": "T1, von Willebrand factor (VWF)", "assay": "filter; Bmax 10%; 2 mM CaCl2, 37 C", "protocol": "as §1"}, "[9]": {"molecular_target": "T1, von Willebrand factor (VWF)", "assay": "filter; Bmax 13%; 2 mM CaCl2, 37 C", "protocol": "as §1"}, "[10]": {"molecular_target": "T1, von Willebrand factor (VWF)", "assay": "filter; Bmax 59%; 2 mM CaCl2, 37 C", "protocol": "as §1"}, "[11]": {"molecular_target": "T1, von Willebrand factor (VWF)", "assay": "filter; Bmax 79%; 2 mM CaCl2, 37 C", "protocol": "as §1"}, "[12]": {"molecular_target": "T1, von Willebrand factor (VWF)", "assay": "filter; Bmax 57%; 2 mM CaCl2, 37 C", "protocol": "as §1"}, "[13]": {"molecular_target": "T1, von Willebrand factor (VWF)", "assay": "filter; Bmax 62%; 2 mM CaCl2, 37 C", "protocol": "as §1"}}, "note": "Positions count from the first letter of the chain named."}
{"binder": "B1", "values": [{"measurement": "Kd", "setting": "[1]", "result": 12, "unit": "nM"}]}
{"binder": "B2", "values": [{"measurement": "Kd", "setting": "[2]", "result": 9.6, "unit": "nM"}]}
{"binder": "B3", "values": [{"measurement": "Kd", "setting": "[3]", "result": 8.6, "unit": "nM"}]}
{"binder": "B4", "values": [{"measurement": "Kd", "setting": "[4]", "result": 12, "unit": "nM"}]}
{"binder": "B5", "values": [{"measurement": "Kd", "setting": "[5]", "result": 10.5, "unit": "nM"}]}
{"binder": "B6", "values": [{"measurement": "Kd", "setting": "[6]", "result": 17, "unit": "nM"}]}
{"binder": "B7", "values": [{"measurement": "Kd", "setting": "[7]", "result": 12.5, "unit": "nM"}]}
{"binder": "B8", "values": [{"measurement": "Kd", "setting": "[8]", "result": 83, "unit": "nM"}]}
{"binder": "B9", "values": [{"measurement": "Kd", "setting": "[9]", "result": 54, "unit": "nM"}]}
{"binder": "B10", "values": [{"measurement": "Kd", "setting": "[4]", "result": 26, "unit": "nM"}]}
{"binder": "B11", "values": [{"measurement": "Kd", "setting": "[9]", "result": 83, "unit": "nM"}]}
{"binder": "B12", "values": [{"measurement": "Kd", "setting": "[10]", "result": 8.8, "unit": "nM"}]}
{"binder": "B13", "values": [{"measurement": "Kd", "setting": "[2]", "result": 6.6, "unit": "nM"}]}
{"binder": "B14", "values": [{"measurement": "Kd", "setting": "[9]", "result": 126, "unit": "nM"}]}
{"binder": "B15", "values": [{"measurement": "Kd", "setting": "[11]", "result": 12, "unit": "nM"}]}
{"binder": "B16", "values": [{"measurement": "Kd", "setting": "[8]", "result": 26, "unit": "nM"}]}
{"binder": "B17", "values": [{"measurement": "Kd", "setting": "[12]", "result": 9.8, "unit": "nM"}]}
{"binder": "B18", "values": [{"measurement": "Kd", "setting": "[13]", "result": 5.7, "unit": "nM"}]}
{"binder": "B19", "values": [{"measurement": "Kd", "setting": "[12]", "result": 7.2, "unit": "nM"}]}
{"binder": "B20", "values": [{"measurement": "Kd", "setting": "[10]", "result": 7.1, "unit": "nM"}]}
